Data: patent US20210238283A1 (Y BIOLOGICS, published 2021)

How the values were obtained:
[1] = target: T1, monkey (Rhesus monkey) LAG-3 overexpressed on HEK293E cells (Rhesus monkey, UniProt A0A5F8A874 23-533); assay: flow cytometry on HEK293E-MrhLAG3 cells, MFI, fitted curve
T1 construct: whole, on cells; also called HEK293E-MrhLAG3; MrhLAG3 (Rhesus Monkey)
T1 sequence: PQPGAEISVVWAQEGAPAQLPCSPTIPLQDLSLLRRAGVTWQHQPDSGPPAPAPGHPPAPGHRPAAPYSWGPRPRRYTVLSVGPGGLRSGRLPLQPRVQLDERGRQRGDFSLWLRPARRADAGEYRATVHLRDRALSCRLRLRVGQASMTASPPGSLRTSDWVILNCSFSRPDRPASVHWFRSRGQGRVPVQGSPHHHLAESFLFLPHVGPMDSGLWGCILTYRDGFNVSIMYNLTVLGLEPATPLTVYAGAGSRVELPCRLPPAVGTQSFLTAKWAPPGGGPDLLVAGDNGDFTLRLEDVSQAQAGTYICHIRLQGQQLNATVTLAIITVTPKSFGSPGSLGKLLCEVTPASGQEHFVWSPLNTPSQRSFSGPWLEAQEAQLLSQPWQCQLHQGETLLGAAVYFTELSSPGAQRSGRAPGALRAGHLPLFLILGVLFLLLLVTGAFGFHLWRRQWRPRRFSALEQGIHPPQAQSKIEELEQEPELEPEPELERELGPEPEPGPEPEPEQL
Description: (§1) After that, the cells were washed three times with PBS containing 2% FBS and then subjected to the reaction for 30 minutes at 4° C. with anti-human IgG antibody (#FI-3000, Vectorlabs) linked with FITC fluorescent. The cells were washed by the same washing process as above followed by suspension in 0.2 ml PBS containing 2% FBS. The cells were then analyzed by FACSCanto II flow cytometer.

[2] = target: T2, human LAG-3 overexpressed on cells (human, UniProt P18627 23-525); assay: cell-based or functional assay
T2 sequence (looked up): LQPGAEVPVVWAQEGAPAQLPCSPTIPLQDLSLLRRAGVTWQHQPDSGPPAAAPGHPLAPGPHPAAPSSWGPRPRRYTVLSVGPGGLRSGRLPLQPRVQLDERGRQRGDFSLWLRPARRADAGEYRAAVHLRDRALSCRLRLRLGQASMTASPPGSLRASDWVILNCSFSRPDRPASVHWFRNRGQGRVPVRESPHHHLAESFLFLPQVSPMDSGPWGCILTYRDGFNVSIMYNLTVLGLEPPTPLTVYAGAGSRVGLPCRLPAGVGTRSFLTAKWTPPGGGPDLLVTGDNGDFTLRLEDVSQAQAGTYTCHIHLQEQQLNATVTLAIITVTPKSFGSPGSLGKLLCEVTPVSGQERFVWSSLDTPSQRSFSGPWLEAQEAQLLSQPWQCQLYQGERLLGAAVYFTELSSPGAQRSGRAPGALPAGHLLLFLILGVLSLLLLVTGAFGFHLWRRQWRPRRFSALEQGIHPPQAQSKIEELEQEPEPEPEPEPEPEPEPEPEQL

[3] = target: T3, mouse LAG-3 overexpressed on HEK293E cells (mouse, UniProt Q61790 24-521); assay: flow cytometry on HEK293E-mLAG3 cells, MFI
T3 construct: whole, on cells; also called HEK293E-mLAG3; mLAG3 (Mouse)
T3 sequence (looked up): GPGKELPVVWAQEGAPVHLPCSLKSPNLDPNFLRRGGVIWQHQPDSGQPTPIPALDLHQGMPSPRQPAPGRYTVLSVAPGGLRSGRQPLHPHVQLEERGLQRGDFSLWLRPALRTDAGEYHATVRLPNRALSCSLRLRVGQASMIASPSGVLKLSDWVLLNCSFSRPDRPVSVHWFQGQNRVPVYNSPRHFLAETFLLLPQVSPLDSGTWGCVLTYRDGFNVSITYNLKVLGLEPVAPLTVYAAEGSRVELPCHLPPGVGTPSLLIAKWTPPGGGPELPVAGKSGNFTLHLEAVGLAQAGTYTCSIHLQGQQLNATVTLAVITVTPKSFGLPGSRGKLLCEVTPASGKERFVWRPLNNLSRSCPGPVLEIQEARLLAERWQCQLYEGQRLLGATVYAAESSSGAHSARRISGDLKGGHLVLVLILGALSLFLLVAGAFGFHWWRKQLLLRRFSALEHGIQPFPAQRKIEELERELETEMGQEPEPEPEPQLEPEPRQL
Description: as §1

[4] = target: T2, human LAG-3 overexpressed on cells; assay: flow cytometry on HEK293E-hLAG3 cells, MFI, fitted curve
Description: as §1

[5] = target: T4, recombinant mouse LAG-3 fused with mouse Fc (mLAG-Fc) (mouse, UniProt Q61790 24-442, limits assumed); assay: BLI (Octet QKe)
T4 construct: also called mouse LAG-3 antigen; not shown: mouse Fc (mFc) at the carboxy terminal
T4 sequence (looked up): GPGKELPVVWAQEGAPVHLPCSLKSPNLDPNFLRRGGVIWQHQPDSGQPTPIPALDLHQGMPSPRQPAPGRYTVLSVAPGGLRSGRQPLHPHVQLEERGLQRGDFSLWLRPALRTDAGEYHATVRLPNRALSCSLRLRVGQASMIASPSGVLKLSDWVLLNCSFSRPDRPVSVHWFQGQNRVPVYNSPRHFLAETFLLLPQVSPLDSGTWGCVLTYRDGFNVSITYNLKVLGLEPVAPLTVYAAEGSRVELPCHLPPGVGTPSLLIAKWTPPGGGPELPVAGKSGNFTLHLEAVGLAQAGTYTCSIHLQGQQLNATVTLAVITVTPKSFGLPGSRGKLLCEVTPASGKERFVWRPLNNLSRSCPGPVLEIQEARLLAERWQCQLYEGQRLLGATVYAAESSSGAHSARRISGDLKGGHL

[6] = target: T5, recombinant human LAG-3 extracellular domain fused with mouse Fc (hLAG-3-mFc) (human, UniProt P18627 29-450); assay: BLI (Octet QKe), 1:1 global fit
T5 construct: range 29-450; Made in HEK293F cells; also called human LAG-3 antigen; wild-type (WT) LAG-3; not shown: mouse Fc (mFc) at the carboxy terminal
T5 sequence (looked up): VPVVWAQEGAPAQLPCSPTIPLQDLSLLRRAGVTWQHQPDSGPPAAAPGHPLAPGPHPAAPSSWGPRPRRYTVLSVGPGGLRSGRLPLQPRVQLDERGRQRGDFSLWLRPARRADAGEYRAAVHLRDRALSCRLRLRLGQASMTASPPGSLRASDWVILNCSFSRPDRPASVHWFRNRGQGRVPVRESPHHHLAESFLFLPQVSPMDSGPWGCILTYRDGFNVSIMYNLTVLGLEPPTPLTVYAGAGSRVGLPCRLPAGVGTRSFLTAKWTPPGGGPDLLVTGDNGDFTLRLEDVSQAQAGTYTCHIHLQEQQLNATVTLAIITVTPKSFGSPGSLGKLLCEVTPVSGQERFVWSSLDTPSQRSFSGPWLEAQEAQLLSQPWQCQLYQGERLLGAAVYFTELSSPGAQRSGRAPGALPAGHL
Description: (§2) After stabilization for 10 minutes in a buffer (#18-1042, Fortebio Inc.), immobilized antigen or antibody was washed out for 5 minutes with the buffer. The antibody or antigen desired for binding was prepared at different concentrations (0.94-60 nM) in a 96-well plate (#655209, Greiner Bio-One, USA) and subjected to the association reaction for 10 minutes followed by dissociation reaction for 10 minutes or 30 minutes.

[7] = target: T6, recombinant monkey LAG-3 fused with mouse Fc (MrhLAG-3-mFc) (monkey); assay: BLI (Octet QKe), 1:1 global fit
T6 construct: also called monkey LAG-3 antigen
Description: as §2

[8] = target: T5, recombinant human LAG-3 extracellular …; assay: Octet biolayer interferometry, 1:1 global fit
Description: as §2

[9] = target: T6, recombinant monkey LAG-3 fused with …; assay: Octet biolayer interferometry, 1:1 global fit
Description: as §2

EC50 [1]: 0.301 µg/mL
EC50 (µg/ml), LAG3/MHC class II Blockade bioassay [2]: 0.0938 µg/mL
EC50 [4]: 0.0926 µg/mL
binding result [5]: no binding
Kd [6]: 0.0906 nM
Kd [7]: 0.456 nM
koff [8]: 1.03e-05 s⁻¹
kon [8]: 114000 M⁻¹ s⁻¹
koff [9]: 3.7e-05 s⁻¹
kon [9]: 81100 M⁻¹ s⁻¹
B1: LAG3-1E09_FR_1E05 (antibody, V domains shown)
VH: EVQLVESGGGLVQPGGSLRLSCAASGFSFSDHYMNWVRQAPGKGLEWVAYIDTSATYIYYADSVKGRFTISRDNAKNSLYLQMNSLRAEDTAVYYCARDNWGSLDYWGQGTLVTVSS
VL: DIQMTQSPSSLSASVGDRVTITCRASQSISSWLAWYQHKPGKAPKLLIYDASNLETGAPSRFSGSGSGTDFTFTIYSLQPEDVATYYCQQYDTVPPTFGPGTKVDIK
notes: Tested as full IgG
binding result [3]: no binding (tested: Log10[Ab] about 0.8, µg/ml)
